In the data set the target is T1, apelin-17 (2).
T1 chain: KFRRQRPRLSHKGPMPF

In general, Km refers to the concentration of substrate that gives half-maximal velocity.

B1: recombinant human neprilysin (rhNEP, Sino Biological) (protein)
chain: YDDGICKSSDCIKSAARLIQNMDATTEPCTDFFKYACGGWLKRNVIPETSSRYGNFDILRDELEVVLKDVLQEPKTEDIVAVQKAKALYRSCINESAIDSRGGEPLLKLLPDIYGWPVATENWEQKYGASWTAEKAIAQLNSKYGKKVLINLFVGTDDKNSVNHVIHIDQPRLGLPSRDYYECTGIYKEACTAYVDFMISVARLIRQEERLPIDENQLALEMNKVMELEKEIANATAKPEDRNDPMLLYNKMTLAQIQNNFSLEINGKPFSWLNFTNEIMSTVNISITNEEDVVVYAPEYLTKLKPILTKYSARDLQNLMSWRFIMDLVSSLSRTYKESRNAFRKALYGTTSETATWRRCANYVNGNMENAVGRLYVEAAFAGESKHVVEDLIAQIREVFIQTLDDLTWMDAETKKRAEEKALAIKERIGYPDDIVSNDNKLNNEYLELNYKEDEYFENIIQNLKFSQSKQLKKLREKVDKDEWISGAAVVNAFYSSGRNQIVFPAGILQPPFFSAQQSNSLNYGGIGMVIGHEITHGFDDNGRNFNKDGDLVDWWTQQSASNFKEQSQCMVYQYGNFSWDLAGGQHLNGINTLGENIADNGGLGQAYRAYQNYIKKNGEEKLLPGLDLNHKQLFFLNFAQVWCGTYRPEYAVNSIKTDVHSPGNFRIIGTLQNSAEFSEAFHCRKNSYMNPEKKCRVW
In the case of B1, the Km was found to be 190 µM, the kcat (1/S) was 3.4 1/S and the kcat/Km (1/MS) is 18000 1/MS.

These data come from patent US20200239537.
